Assay results published in the nanobody polyreactivity screen of Harvey et al. (2022).

Assay: yeast display, Sf9 membrane polyspecificity reagent, FACS + sequencing; frameworks hold sequencing errors
In short: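 Sorting gates, low and high (top ~1%), were placed on anti-HA fluorescence to track expression and on streptavidin fluorescence to track reagent binding. A clone's polyreactivity label is taken from the gate it came out of. The reagent was 10% biotinylated, detergent-solubilized Sf9 membrane, applied for 1 hour at 4 °C to galactose-induced yeast display cells.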

| Sequence | polyreactivity (PSR sort gate) |
| --- | --- |
| QVQLVESGGGLVQAGGSLRLSCSASGIIFGFYAMGWYRQAPGKERELVAAITNDGGNTNYADSVKGRFTISRDNAKNTVYLQMNSLKPEDTAVYYCNADRTQDRNPYTYATFDYWGQGTQVTVSS | low polyreactivity |
| QVQLVESGGGLVQAGGSLRLSCAASGFTFSYYAMGWYRQAPGKERELVAAISGSGTRTYYADSVKGRFTISRDNAKNTVYLQMNSLKPEDTAVYYCAADLYVTYDYWGQGTQVTVSS | high polyreactivity |
| QVQLVESGGGLVQAGGSLRLSCAASGFTFYTYAMGWYRQAPGKERELVATISGSGGDTNYADSVKGRFTISRDNEKNTVYLQMDSLKPEDTAVYYCAAEPDATTYSDPYDYWGQGTQVTVSS | low polyreactivity |
| QVPLVESGGGLVQAGGSLRLSCAASGRIFKSNAMGWYRQAPGKERELVAAISYSGGSTYYADSVKGRFTISRDNAKKTVYLQMNRLKPEDTAVYYCNKYFRREYDYWGQGTQVTVSS | high polyreactivity |
| QVQLVESGGGLVQAGGSLRLSCAASGRIFYKYVMGGYRQAPGKARVLVAAINRSGGTTYYADSVKGRFTISRDNAKKTVYLQMNSQKPEDTAVYYCNATLPAYWPYYYYQGGDDYWGQGTQVTVSS | low polyreactivity |
| QVQLQESGGGLVQAGGSQRLTCAASVYIFYFQYMGWYRQAPGKEREFVAAMSDGANTNYADSVKGRFTISRDNAKNTESLQMNSLKPEDTAGYYCAVYADENYYYIYGGQGTQVTVSS | low polyreactivity |
| QVQLVESGGGLVQAGGSLRLSCAASGRTFSYYAMGWYRQAPGKERELVAAIRRSSGTTYYADSVKGRFTISSDNAKNTVYLQMNSLKPEDTAVYYCNARSRRASIKRDYWGQGTQVTVSS | high polyreactivity |
| QVQLVESGGGLVQAGGSLRLSCAASGSTFIWNGIVWSRQAPGNEREWVAAITSSSTNYADSVKGRFTISRDNANNTVYVQMNSLKPEDTAVYYCAAEIYPLGSLRLGPGEYDHWGQGTQVTVSS | low polyreactivity |
| QVQLVESGGGLVQAGGSLRLSCAASGFIFGYYAMGWYRQAPGKERELVAAISRSGGRTYYADSVKGRFTISRDNAKNTVYLQMNSLKPEDTAVYYCAKGSNRSRGYYWGQGTQVTVSS | high polyreactivity |
| QVQLVESGGGLVQAGGSLRLSCAASGFIFDIYAMGWYRQAPGKERELVAAITWNSGSTHYADSVKGRITISRDNAKNTVYLQMNSLKPEDTAVYYCAADEVTYAYYPYDYWGQGTQVTVSS | low polyreactivity |
| QVQLVESGGGLVQAGGSLRLSCAASGLIFDYYAMGWYRQAPGKERELVASINNRGGSTFYADSVKGRFTISRDNAKNTVYLQMNSLKPEDTAVYYCNAVRRTGGHGDYWGQGTQVTVSS | high polyreactivity |
| KVQLVESGGGLVQAGGSLRLSCAASGSIIGGYAMGWYRQAPGKVRELVAAINRSGGRTYYADSVKGRFTFSRDNAKNTVYLQMNSLKPEDTAVYYCAADNFRGKYDYLGQGTQVTVSS | high polyreactivity |
| QVQLVESGGGLVQAGGSLRLSCAASGSTFRYYAMGWYRQAPGKERELVAAITYSGGRTYYADSVKGRFTISRDNAKNTVYLQMNSLKPEDTAVYYCAASFRAWSGNYWGQGTQVTVSA | high polyreactivity |
| QVQLEESGGGLVQAGGSIRLSCAASVSTFVGNAMGWYRKAPGKETEFVATISNSGGRTYYADSVKGRFTISRDNSKNTVYLQMNSLKPEDTAVYFCAADHPAFCPGYSFDYWGQGTQVTVTS | low polyreactivity |
| QVQLVESGGGLVQAGGSLRLSCAASGRIFRRYAMGWYRQAPGKERELVATISRGGSNTSYADSVKGRFTISRDNAKNTVYLQMNSLKPEDSAVYYCAKGSVRYYVGFDYWGQGTQVTVSS | high polyreactivity |
| QVQLVESGGGLVQAGGSLRLSCAASGRTFLRNAMGWYRQAPGKERELVATISWGGGSTYYADSVKGRFTISRDNAKNTVYLQMNSLKPEDTAVYYCAKQRAWSGFDYWGQGTQVTVSS | high polyreactivity |
| QVQLVESGGGLVQAGGSLRLSCAASGFTFYSYVMGWYRQAPGKERELVAAISWSGGRTNYADSVKGRFTISRDNAKNTVYLQMNSLKPEDTAVYYCNAPFRLRYRVDYWGQVTQVTVSS | high polyreactivity |
| QVQLVESGGGLVQAGGSLRLSCAASGSIFRANTMGWYRQAPGKERELVAVISSGGRTYYADSVKGRFTISRDNAKNTVYLQMNSLKPEDTAVYYCAAKRGYGYGYWGQGTQVTVSS | high polyreactivity |
| QVQLVESGGCLVQAGGSLRLSCAASGRTFPYNVMGWYRQAPGKERELDAGITGSGDSTFYADSVKGRFTISRDNAKNTFYLQMNSLNPDDTSVYYCAARYRTLNDGYIRNYWGQGTQVTVSS | low polyreactivity |
| QVQLVESGGGLVQAGGSLRLSCAASGSIFVQYAMGWYRQAPGKERELVATISSSGGSTYYADSVKGRFTISRDNAKNTVYLQMNSLKPEDTAVYYCAADWTLDPSYGYYADDYWGQGTQVTVST | low polyreactivity |
| QVQLVESVGGLVQAGVSLRLSCAASGRIFGRYPMGWYRQAPGKERELVAAISFNGGSTSYADSVKGRFTISRDNAKNTVYLQMNSLKQEDTAVYYCAAKYRGFNYWGQGTQVTVSS | high polyreactivity |
| QVQLVESGGGLVKAGGSLRLSCAASGRIFWHNAMGWYRQAPGNERELVAAITGGGSTYYADSVKGRFTISRDNAKNTVYLQMNSLKPEDTAVYYCATLGSLRYYWPGYDYWGQGTQVTVSS | low polyreactivity |

| Sequence | polyreactivity (PSR sort gate) |
| --- | --- |
| QVQLVESGGGLVQAGGSLRLSCAASGRTLGPNPMGWYRPAPGKERELVAAITYNAGSTYYADSVKGRFTISRDNAKNTVYLQMNSLKPEDTAVYYCAARSTQKWTKYYYWGQGTQVTVSS | high polyreactivity |
| QVQLVESGGGLVQAGGSLRLSCAASGSIFKSYAMGWYRQAPGKERELVAAISWSGTSTYYADSVKGRFTISRDHAKNTVYLQMNSLKPEDTAVYYCAASGDYGEYGYWGQGTQVTVSS | low polyreactivity |
| QVQLVESGGGLVQAGGSLRLSCAASGFIFSYYAMGWYRQAPGKERELVADISRGGSTYYADSVKGRFTISRDNAKNTVYLQMNSLKPEDTAVYYCNAYIRYVVNGYRVYSFDYWGQGTQVTVSS | high polyreactivity |
| QVQLVESGGGLVQAGGSLRLSCAASGSIIGFYVMGWYRQAPGKERELVAGISDSGGRTYYADSVKGRFTISRDNAKNTVYLQMNSLKPEDTAVYYCAAEAYKHGVWDYDYWGQGTQVTVSS | low polyreactivity |
| QVQLVESGGGLVQAGGSLRLSCAASGSISFSNAMGWYRQAPGKERELVAAISWSGGRTYYADSVKGRCTISRDNAKNTVYLQMNSLKPEDTAVYYCAADDFRYGRQVLGLNDYNYWGLGTQVTVSS | low polyreactivity |
| QVQLVESGGGLVQAGGSLRLSCAASGNTFPFNAMGWYRQAPGKERELVAAISRGGSTYYADSVKGRFTISRDNAKNTVYLQMNSLKPDDTAVYYCAAGYRRQGYGGYDYWGQGTQVTVSS | high polyreactivity |
| QVQLVESGGGLVQAGGSLRLSCAASGLIFKYNVMGWYRQAPGKERELVAAITKRGGSTYYADSVKGRFTISRDNEKNTVYLQMNSLKPEDTAVYYCAARPVNTVRPFDYWGQGTQVTVSS | high polyreactivity |
| QVQLVESGGGLVQAGGSLRLSCAASGNTVWYNAMGWFIQAPGKETELVAAISYSGGGTYYAVSVKGRFTISREKAKNTVYLQMNCLKPDDSAVYYCSADTLQRAFVLYDYWGQGTQVTVSS | low polyreactivity |
| QVQLVESGGGLVQAGGSLRLSCAASGRIFRRYTIGWYRQAPGKEWELVAGISSGGSTKYADSVKGRFTISRDNAKNTVYLQMNSLKPEDTAVYYCNRRCPIYGSRFGYYYWGQGTQVTVSS | high polyreactivity |
| QVQLVESGGGFVQAGGSLRLSCAASGRIFVVNAMLWYRPAPAKESEFVAAISRSGGSTYYADSVKGRFTISRDKATNTVYLQMNSLKREDTAVYYCAADIVGFRTSGTYEYWGHGTQVTVSS | low polyreactivity |
| QVQLVESGGGLVQAGGSLLLRCAASGRTFKNYAKGWSRQAPGKERELVAAISSGGGRTKYADSEKGRFTISRDNAKNSVYLQLNSLKPDDTAVYYCAAAFYYRDDYWGQGSQVTVSS | high polyreactivity |
| QVQLVESGGGLVQAGGSLRLSCAASGSIFPQYAMGWYRQAPGTERELVDAITWSGSRTRYADSVKGRFTISRDNAKNTVYLQMNSLKPEDTAVYYCAARFNGQTYYYCGQGTQVTVSS | high polyreactivity |
| QVQIVESGGGLVQAGGSLRLSCAASGRNFGRYAMGWYRHAPRKERELVATISSGGSTYYADSVKGRFTISRDNAKNTVYLPMNSLKQEDTAVYYCAADYLSYYLYEGSIKYGYWGQGTQVSVSS | high polyreactivity |
| QVQLVESGGGLVQAGGSLRLSGAASGRTCGTNAMGWSRQAHGKERELVAAISSSGGSTYYADSVKGRFTISRDNAKNTVYLQMISQKPEDTAVYYCAQGWHRGVGFGYWGQGTQVTVSS | high polyreactivity |
| KVQLQESGGGLVQAGGSLRPSCAASGSITDGVPMGWDRQAPGEERELVATTVLGATTNYADSVKGRFTISRGNAKNTVYLLMNSLKPEETAVYYCAAPLRYDKGFSYWRQGTQVTVSS | low polyreactivity |
| QVQLVESGGGLVQAGGSLRLSCAASGITPDYAMGWYRQAPGTERELVAAITWSGGRTYYADSVKGRFTISRDNAKNTVYLQMNSLKPEDTAVYYCAAEHYLGYDYWGQGTQVTVSS | low polyreactivity |
| QVQIVESGGGLVQAGGSLRLSCAASGRTIGVYAMGWYRQAPRKERELVAAITGDGTKDYADSVKGRFRFSRAISKITVYLQMNSLKPEDTAVYYCAVGGAGSDDYWGQGTQVTVSS | low polyreactivity |
| QVQLVESGGGLVQAGGRLRLSCAASGRIFWINDMGWYRQAPGKERELVAAITWSGASTYYADSVKGRFTISRDNAKNTVYLQMNSLKPEDTAVYYCAAVIADSLYYSYDYWGQGTQVTVSS | high polyreactivity |
| QVQLVESGGGLVQAGGSLRLSSAASGNTFDSKAMGWYRQAPGKERELVAGISQGDGSTYADSVKGRFTISRDNAKNTVYFQMNSLKPEDTAVYYCAADRDYIMDYWGQGTQVTVSS | high polyreactivity |
| QVQLVESGGGLVQAGGSLRLSCAASGSTFYAYAMGWYRQAPGKEWELVAAITYSGGTPYYADSVKGRFTISRDNAKNTVYLQMNSLKPEDTAVYYCAARYRGLTGHIDGYWGQGTQVTVSS | low polyreactivity |
| QVQLVESGGGLVQAGGSLRLSCAASGFNFVSYAMGWYRKAPGKERELVAVIDNSDGDTYYADSVKGRFTISRDNAKNTVYLQMNSLKPEDTAVYYCARDVSARGYLPFDYWGQGTQVTVSS | low polyreactivity |
